Measured values as given in article PMC11141937 (JCI Insight, 2024).

What was measured:
[1] = molecular target: SARS-CoV-2 Delta S protein ectodomain (SARS-CoV-2 Delta (B.1.617.2), strain); experiment: BLI; conditions: both partners purified
[2] = molecular target: SARS-CoV-2 Omicron BA.2 S protein ectodomain (SARS-CoV-2 Omicron BA.2, strain); experiment: BLI; conditions: both partners purified
[3] = molecular target: SARS-CoV-2 Delta S protein on S-293T cells (SARS-CoV-2 Delta (B.1.617.2), strain); experiment: flow cytometry on cells; conditions: one partner purified
[4] = molecular target: SARS-CoV-2 Omicron BA.1 S protein on S-293T cells (SARS-CoV-2 Omicron BA.1, strain); experiment: flow cytometry on cells; conditions: one partner purified
[5] = molecular target: SARS-CoV-2 Omicron BA.2 S protein on S-293T cells (SARS-CoV-2 Omicron BA.2, strain); experiment: flow cytometry on cells; conditions: one partner purified
[6] = molecular target: SARS-CoV-2 Omicron BA.4/5 S protein on S-293T cells (SARS-CoV-2 Omicron BA.4/5, strain); experiment: flow cytometry on cells; conditions: one partner purified

Measured: binding result

B1: O5C2 mAb (antibody, V domains shown)
VH: EVQLVESGGGLIQPGGSLRLSCAASGIIVSRNYMSWVRQAPGKGLEWVSILYAGGSSFYAEPVQGRFTVSRDNSKNTLFLEMNSLRVEDTAVYYCARDLQWGIDIWGQGAMVTVSS
VL: DIQMTQTPPSLSASVGDRVSISCRASQSTGSWLAWYQQKPGKAPKLLIYKTSSLESGVPSRFSGSGSGTEFTLTISSLQPDDVATYYCQHYDTYSSTFGQGTKVEIK
binds: all assays above
